The results in this text go back to article PMC3303126 (Nature structural & molecular biology, 2012).

Series [1] addresses T1, Sac3-M (Sac3 250-563);Thp1;Sem1 (Saccharomyces cerevisiae;Saccharomyces …, UniProt P46674;Q08231;O94742 250-563;1-455;1-89, ||).
T1 sequence 1: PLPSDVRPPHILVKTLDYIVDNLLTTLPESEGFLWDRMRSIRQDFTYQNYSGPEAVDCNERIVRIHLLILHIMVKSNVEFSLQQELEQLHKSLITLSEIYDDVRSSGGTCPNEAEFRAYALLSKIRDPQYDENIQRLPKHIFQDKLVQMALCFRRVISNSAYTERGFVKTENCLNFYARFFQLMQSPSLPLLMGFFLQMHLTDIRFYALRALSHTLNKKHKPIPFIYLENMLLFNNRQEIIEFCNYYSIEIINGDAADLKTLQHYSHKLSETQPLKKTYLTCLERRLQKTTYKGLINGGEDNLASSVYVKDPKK
T1 sequence 2: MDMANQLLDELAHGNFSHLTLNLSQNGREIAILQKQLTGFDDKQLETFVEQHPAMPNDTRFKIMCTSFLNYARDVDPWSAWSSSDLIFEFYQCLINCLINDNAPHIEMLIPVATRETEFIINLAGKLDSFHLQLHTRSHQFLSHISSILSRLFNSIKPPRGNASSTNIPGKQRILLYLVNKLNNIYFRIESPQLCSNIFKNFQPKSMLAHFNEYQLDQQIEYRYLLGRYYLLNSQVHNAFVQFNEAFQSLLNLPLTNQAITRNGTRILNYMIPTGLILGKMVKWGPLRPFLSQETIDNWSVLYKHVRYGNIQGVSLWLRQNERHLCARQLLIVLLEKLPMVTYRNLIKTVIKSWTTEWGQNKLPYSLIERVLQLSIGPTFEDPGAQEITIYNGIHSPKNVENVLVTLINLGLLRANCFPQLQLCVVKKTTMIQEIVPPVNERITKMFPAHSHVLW
T1 sequence 3: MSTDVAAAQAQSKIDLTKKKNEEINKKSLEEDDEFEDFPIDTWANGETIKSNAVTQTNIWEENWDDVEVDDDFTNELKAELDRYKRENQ
Briefly: EMSA.

Series [2] concerns the target T2, His-Thp1 (full-length Thp1, coexpressed with Sem1) (S. cerevisiae, UniProt Q08231 1-455).
T2 sequence: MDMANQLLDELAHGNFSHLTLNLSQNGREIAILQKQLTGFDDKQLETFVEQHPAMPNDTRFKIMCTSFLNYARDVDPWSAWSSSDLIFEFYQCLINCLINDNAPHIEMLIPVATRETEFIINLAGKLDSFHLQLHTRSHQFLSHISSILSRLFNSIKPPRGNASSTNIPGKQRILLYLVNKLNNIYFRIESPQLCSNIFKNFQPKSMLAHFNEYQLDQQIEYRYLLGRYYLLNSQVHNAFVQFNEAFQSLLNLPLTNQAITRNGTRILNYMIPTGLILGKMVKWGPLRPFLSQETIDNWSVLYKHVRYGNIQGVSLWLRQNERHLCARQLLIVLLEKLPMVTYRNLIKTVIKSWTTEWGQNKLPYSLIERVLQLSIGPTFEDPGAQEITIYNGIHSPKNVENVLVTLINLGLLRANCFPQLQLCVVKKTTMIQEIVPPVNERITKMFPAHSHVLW
Briefly: crystal structure.

Series [3] addresses T1, Sac3-M (Sac3 250-563);Thp1;Sem1. Nature of the series: EMSA. This is another data set of the same source.
The target of series [4] is T3, ProtA-Sac3 250-563;Thp1;Sem1 (Saccharomyces cerevisiae;Saccharomyces …, UniProt P46674;Q08231;O94742 250-563;1-455;1-89, ||).
T3 sequence 1: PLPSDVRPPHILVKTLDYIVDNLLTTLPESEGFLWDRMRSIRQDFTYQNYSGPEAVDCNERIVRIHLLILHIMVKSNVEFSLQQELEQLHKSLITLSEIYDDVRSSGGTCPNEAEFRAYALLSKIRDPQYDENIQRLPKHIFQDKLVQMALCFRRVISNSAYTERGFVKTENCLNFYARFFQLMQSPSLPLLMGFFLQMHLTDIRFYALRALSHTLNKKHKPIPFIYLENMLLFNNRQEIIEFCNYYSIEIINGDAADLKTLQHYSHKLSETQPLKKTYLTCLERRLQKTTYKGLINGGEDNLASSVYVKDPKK
T3 sequence 2: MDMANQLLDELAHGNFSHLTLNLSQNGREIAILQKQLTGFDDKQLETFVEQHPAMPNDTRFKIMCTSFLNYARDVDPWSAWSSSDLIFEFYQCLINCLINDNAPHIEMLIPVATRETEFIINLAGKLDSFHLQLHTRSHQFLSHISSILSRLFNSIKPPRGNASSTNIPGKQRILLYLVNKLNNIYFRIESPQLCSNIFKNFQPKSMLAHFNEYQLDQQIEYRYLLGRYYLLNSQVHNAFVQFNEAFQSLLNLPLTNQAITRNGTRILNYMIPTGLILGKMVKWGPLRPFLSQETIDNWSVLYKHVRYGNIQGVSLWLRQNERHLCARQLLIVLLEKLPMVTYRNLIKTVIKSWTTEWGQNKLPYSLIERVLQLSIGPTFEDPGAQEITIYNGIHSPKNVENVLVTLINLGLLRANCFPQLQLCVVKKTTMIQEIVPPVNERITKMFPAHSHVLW
T3 sequence 3: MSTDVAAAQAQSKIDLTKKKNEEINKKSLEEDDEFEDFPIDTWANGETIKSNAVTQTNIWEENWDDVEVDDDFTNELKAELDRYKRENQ
Briefly: EMSA.

Series [5] has as its target T2, His-Thp1 (full-length Thp1, coexpressed …). Briefly: pull-down.

In series [1], UUUUUUUUUUUUUUUUUUUUUUUUU (ssRNA) [polyU25 RNA] displayed a Kd of 175 nM.

B1: Sac3 residues 250-563 (Sac3-M), as crystallised (domain or fragment)
chain: PLPSDVRPPHILVKTLDYIVDNLLTTLPESEGFLWDRMRSIRQDFTYQNYSGPEAVDCNERIVRIHLLILHIMVKSNVEFSLQQELEQLHKSLITLSEIYDDVRSSGGTCPNEAEFRAYALLSKIRDPQYDENIQRLPKHIFQDKLVQMALCFRRVISNSAYTERGFVKTENCLNFYARFFQLMQSPSLPLLMGFFLQMHLTDIRFYALRALSHTLNKKHKPIPFIYLENMLLFNNRQEIIEFCNYYSIEIINGDAADLKTLQHYSHKLSETQPLKKTYLTCLERRLQKTTYKGLINGGEDNLASSVYVKDPKK
In the case of B1, the binding result in series [2] is reported as “binds”.

With AAAAAAAAAAAAAAAAAAAAAAAAA (ssRNA) [polyA25 RNA], the binding result in series [3] and in series [4] was “binds” each time.

B2: Sem1 (full length, bacterially expressed) (natural protein)
chain: MSTDVAAAQAQSKIDLTKKKNEEINKKSLEEDDEFEDFPIDTWANGETIKSNAVTQTNIWEENWDDVEVDDDFTNELKAELDRYKRENQ
Consider B2, for which, in series [5], the binding result was “binds”.
